According to paper PMC8179448:
Where two headings read alike, the source gives them in different places. Blank lines part the entries; values can stand above or below the molecule they belong to.

How the values were obtained:
14-3-3ζ [1] = molecular target: 14-3-3ζ (UniProt P63104); test: fluorescence polarisation
14-3-3ζ [2] = molecular target: 14-3-3ζ (UniProt P63104); test: fluorescence polarisation; remark: listed apart in the source
14-3-3ζ [3] = molecular target: 14-3-3ζ (UniProt P63104); test: fluorescence polarisation; remark: listed apart in the source
14-3-3ζ [4] = molecular target: 14-3-3ζ (UniProt P63104); test: ITC; settings: for binding against the reference: reference: 240pi
14-3-3ζ [5] = molecular target: 14-3-3ζ (UniProt P63104); test: fluorescence polarisation titration, FAM-labelled peptides; settings: for binding against the reference: reference: 240pi
14-3-3ζ [6] = molecular target: 14-3-3ζ (UniProt P63104); test: fluorescence polarisation; remark: listed apart in the source
14-3-3ζ protein, P63104 = molecular target: T1, 14-3-3ζ protein, P63104; test: native gel or EMSA + cross-linking + other: MALDI-TOF; settings: remark: other sources report otherwise
T1 chain: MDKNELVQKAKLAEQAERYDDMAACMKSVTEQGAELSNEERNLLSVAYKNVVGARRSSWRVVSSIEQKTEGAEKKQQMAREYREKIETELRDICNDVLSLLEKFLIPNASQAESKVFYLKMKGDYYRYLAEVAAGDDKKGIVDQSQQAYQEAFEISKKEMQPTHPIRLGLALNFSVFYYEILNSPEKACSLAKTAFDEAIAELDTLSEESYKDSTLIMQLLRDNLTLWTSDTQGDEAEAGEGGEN

Kd (14-3-3ζ [1]): 400 nM
ka,1 (two-step fit assuming pS218 binds first; rejected by the paper) (14-3-3ζ [1]): 16.7 μM^−1 s^−1
ka,2 (second step of the two-step fit) (14-3-3ζ [1]): 66.2 s⁻¹
ka,2 (two-step fit assuming pS218 binds first; rejected by the paper) (14-3-3ζ [1]): 29.8 s^−1
kd,1 (two-step fit assuming pS218 binds first; rejected by the paper) (14-3-3ζ [1]): 53.8 s^−1
kd,2 (two-step fit assuming pS218 binds first; rejected by the paper) (14-3-3ζ [1]): 8.64 s^−1
koff (14-3-3ζ [1]): 9.69 s⁻¹
ka,1 (first step of the two-step fit) (14-3-3ζ [2]): 5.75e+07 M⁻¹ s⁻¹
ka,2 (second step of the two-step fit) (14-3-3ζ [2]): 62.2 s⁻¹
kd,1 (first step of the two-step fit) (14-3-3ζ [2]): 35.2 s⁻¹
kd,2 (second step of the two-step fit) (14-3-3ζ [2]): 38.9 s⁻¹
koff (14-3-3ζ [3]): 8.42 s⁻¹
Molecule: FAM-labeled Rnd3 C-terminal peptide (207–241) 218_240pi (from UniProt P61587 207-241)

dH (14-3-3ζ [4]): -3.56 kcal/mol
stoichiometry N (peptide per 14-3-3ζ) (14-3-3ζ [4]): 1
Molecule: Rnd3 C-terminal peptide (207–241) 240piFar (from UniProt P61587 207-241)

other: association constant K (14-3-3ζ [5]; reference: no_piFar, sites S240): stronger; reference 0.13
Molecule: Rnd3 207-241 (from UniProt P61587) 240piFar

dH (14-3-3ζ [4]): -3.53 kcal/mol
stoichiometry N (peptide per 14-3-3ζ) (14-3-3ζ [4]): 1
Molecule: Rnd3 C-terminal peptide (207–241) 240pi (from UniProt P61587 207-241)

Ka (14-3-3ζ [1]): 130000 M⁻¹
Molecule: FAM-labeled Rnd3 C-terminal peptide (207–241) no_piFar (from UniProt P61587 207-241)

binding against the reference (14-3-3ζ [4]; sites S210): stronger
binding against the reference (14-3-3ζ [5]; sites S210): stronger
Molecule: Rnd3 207-241 (from UniProt P61587) 210_240pi

dH (14-3-3ζ [4]): -5.58 kcal/mol
stoichiometry N (peptide per 14-3-3ζ) (14-3-3ζ [4]): 0.5
Molecule: Rnd3 C-terminal peptide (207–241) 218_240piFar (from UniProt P61587 207-241)

dH (14-3-3ζ [4]): -6.22 kcal/mol
stoichiometry N (peptide per 14-3-3ζ) (14-3-3ζ [4]): 0.5
Molecule: Rnd3 C-terminal peptide (207–241) 218_240pi (from UniProt P61587 207-241)

dH (14-3-3ζ [4]): 0.703 kcal/mol
Molecule: Rnd3 C-terminal peptide (207–241) no_piFar, farnesylated, without phosphate (from UniProt P61587 207-241)

dH (14-3-3ζ [4]): -7.15 kcal/mol
stoichiometry N (peptide per 14-3-3ζ) (14-3-3ζ [4]): 0.5
Molecule: Rnd3 C-terminal peptide (207–241) all_pi, triply phosphorylated (from UniProt P61587 207-241)

dH (14-3-3ζ [4]): -7.35 kcal/mol
stoichiometry N (peptide per 14-3-3ζ) (14-3-3ζ [4]): 0.5
Molecule: Rnd3 C-terminal peptide (207–241) 210_240piFar (from UniProt P61587 207-241)

dH (14-3-3ζ [4]): -8.76 kcal/mol
stoichiometry N (peptide per 14-3-3ζ) (14-3-3ζ [4]): 0.5
Molecule: Rnd3 C-terminal peptide (207–241) 210_240pi (from UniProt P61587 207-241)

binding against the reference (14-3-3ζ [4]; sites S218): stronger
Molecule: Rnd3 207-241 (from UniProt P61587) 218_240pi

dH (14-3-3ζ [4]): -6.26 kcal/mol
stoichiometry N (peptide per 14-3-3ζ) (14-3-3ζ [4]): 0.5
Molecule: Rnd3 C-terminal peptide (207–241) all_piFar (from UniProt P61587 207-241)

Ka (14-3-3ζ [1]): 290000 M⁻¹
Kd (14-3-3ζ [1]): 3390 nM
koff (14-3-3ζ [1]): 63.9 s⁻¹
Kd (14-3-3ζ [2]): 1490 nM
koff (14-3-3ζ [2]): 44.2 s⁻¹
kon (14-3-3ζ [2]): 2.96e+07 M⁻¹ s⁻¹
Molecule: FAM-labeled Rnd3 C-terminal peptide (207–241) 240pi (from UniProt P61587 207-241)

Ka (14-3-3ζ [1]): 3.13e+06 M⁻¹
Kd (14-3-3ζ [1]): 320 nM
ka,1 (two-step fit assuming pS240 binds first; rejected by the paper) (14-3-3ζ [1]): 31.1 μM^−1 s^−1
ka,2 (two-step fit assuming pS240 binds first; rejected by the paper) (14-3-3ζ [1]): 60.2 s^−1
kd,1 (two-step fit assuming pS240 binds first; rejected by the paper) (14-3-3ζ [1]): 13 s^−1
kd,2 (two-step fit assuming pS240 binds first; rejected by the paper) (14-3-3ζ [1]): 345 s^−1
koff (14-3-3ζ [1]): 10.9 s⁻¹
ka,1 (first step of the two-step fit) (14-3-3ζ [2]): 3.92e+07 M⁻¹ s⁻¹
ka,2 (second step of the two-step fit) (14-3-3ζ [2]): 25.6 s⁻¹
kd,1 (first step of the two-step fit) (14-3-3ζ [2]): 19.9 s⁻¹
kd,2 (second step of the two-step fit) (14-3-3ζ [2]): 54.5 s⁻¹
koff (14-3-3ζ [6]): 8.02 s⁻¹
Molecule: FAM-labeled Rnd3 C-terminal peptide (207–241) 240piFar (from UniProt P61587 207-241)

binding against the reference (14-3-3ζ [4]; sites S210,S218): stronger
binding against the reference (14-3-3ζ [5]; sites S210,S218): stronger
Molecule: Rnd3 207-241 (from UniProt P61587) all_pi

stoichiometry N (14-3-3ζ protein, P63104): 2
B1: 14-3-3ζ protein, P63104 1-245 (natural protein)
chain: MDKNELVQKAKLAEQAERYDDMAACMKSVTEQGAELSNEERNLLSVAYKNVVGARRSSWRVVSSIEQKTEGAEKKQQMAREYREKIETELRDICNDVLSLLEKFLIPNASQAESKVFYLKMKGDYYRYLAEVAAGDDKKGIVDQSQQAYQEAFEISKKEMQPTHPIRLGLALNFSVFYYEILNSPEKACSLAKTAFDEAIAELDTLSEESYKDSTLIMQLLRDNLTLWTSDTQGDEAEAGEGGEN
